Test results taken from the supplement of paper PMC9170038.

Test system: MS2 coat protein
Test: apparent KD of MS2 coat protein; higher = weaker reporter binding
Details: Eterna round: R107
In short: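 Apparent KD was obtained for each design as the median of normalised binding-curve fits over its clusters. RNA switches transcribed on-chip from Illumina sequencing clusters were titrated with SNAP-549-labelled MS2 coat protein (twofold steps, 0.7 or 1.5 nM to 3 µM) in 100 mM Tris-HCl pH 7.5, 80 mM KCl, 4 mM MgCl2, without or with constant ligand.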

[1] = input ligand: theophylline 20 uM
[2] = input ligand: tryptophan 2.4 mM
[3] = input ligand: theophylline 2 mM

| Sequence | apparent KD of MS2 coat protein (input ligand: arginine 13.2 mM) | apparent KD of MS2 coat protein [1] | apparent KD of MS2 coat protein [2] | apparent KD of MS2 coat protein [3] | apparent KD of MS2 coat protein (input ligand: none) |
| --- | --- | --- | --- | --- | --- |
| AGCACAUGAGGAUCACCCAUGUGAGGUGAUACCAGUGAGAAGAAGCACCCUUGGCAGCACUUGGGUACAUGAGGAUCACCCAUGU [Exclusion Theophylline A GF9] | 47.4 nM | 77.8 nM | 54.7 nM | – | – |
| UGUAUUGGAAACAGUACUAGUGAUCCGGUCCGAGGACCGGUACGGCCGCCACUCGAUAUAAAUAAACAUGAGGAUCACCCAUGUA [Ex Tryptophan A 13] | 23.3 nM | 17.1 nM | – | 18 nM | – |
| CCUAUGCAGUCGGCCGCCACUGAACAUGAGGAUCACCCAUGUAAUUAAAAUUAUGAUCCUGAAAUCAGGACCGGGACUGUAUAGG [Ex Tryptophan B 5] | 28.6 nM | 165 nM | – | 431 nM | – |
| GGAUCCAUCCGAAGGAGCGUCGGAAAUGGGUAAACAUGAGGAUCACCCAUGUAAAGGGAACGGCAGGUAGGUCGCGGAUGGAUCC [#25 Same State - Arginine B] | 132 nM | 167 nM | 195 nM | 157 nM | 99.1 nM |
| GUCAGUUCUCAUGAUACCAGACCUGCCUCGGACAUGAGGAUCACCCAUGUACCCAAGCGAGUCCCUUGGCAGCAUGUGGCUUAAA [Ririatre] | 24.7 nM | 19.4 nM | 20.7 nM | – | – |
| UGUAACAUGAGGAUCACCCAUGUGAGUGAUACCAGAUAAGUAGUAGUCCCUUGGCAGCAUAUUGGGCGAGUGUAUAGUCUAUACG [Same State - Theophylline A (Freestyle 8)] | 111 nM | 183 nM | 150 nM | – | – |
| AGCGCAGGUCCUGAUACCAGUGACAUGAGGAUCACCCAUGUCCGAUGGGCCUGCCUCUGACACCCUUGGCAGCAGGGCUUGUGCU [#14 Exclusion-TheophyllineB] | 20 nM | 49.8 nM | 21.3 nM | – | – |
| GGGUGGUAGGCGGCCGCCACUGAUUUUCAUAUAUAUAUAACAUGAGGAUCACCCAUGUAGAUAUGCAGGACCGGGCCUGUUGUUU [aaaL] | 26.6 nM | 39.6 nM | – | 37.7 nM | – |
| AAAUGUACGUCGGCCGCCACUGCGCUGAAGACAGUCACAUGAGGAUCACCCAUGUACGACAAGGGUAGGACCGGGAUGUGAGGGU [Rate] | 45.1 nM | 130 nM | – | 217 nM | – |
| GCGCGCGCCGAAAGGCGCGCGUGUUGCGAUACCAGCCCGGAAACGGGCCCUUGGCAGCGCACAUGAGGAUCACCCAUGUCAUGUU [Exclusion - Theophylline A Attempt #1 (HarryS)] | 14.9 nM | 27.1 nM | 21.9 nM | 24.5 nM | 17.9 nM |
| UAAUCGUAGGCGGCCGCCACUUUUUGGUAGUGUCCAUUGUACACUCACAUGAGGAUCACCCAUGUAAGGACCGGGCCCGCAUCAG [theeternabot_exclusion_MS2_Trp_B_32] | 17.9 nM | 24.7 nM | – | 17.7 nM | – |
| UGACAUUGCUCAGAUACCAGACAUGAGGAUCACCCAUGUACCAAGAGUACAAAUUAAAAUGUCCCUUGGCAGCUGAGCAAUGUCU [TheoBX 7 #MS2Left #Theo2] | 25.4 nM | 37.8 nM | 19.3 nM | – | – |
| GCUGUAAGUGCAGAUACCAGCAAGUGAGGUUUCAUAUGACAUGAGGAUCACCCAUGUAUCUGCCCUUGGCAGCUGCACUUACAGC [#28 Same State - Theophylline B] | 17 nM | 24.2 nM | 21.7 nM | – | – |
| CAUGAGAGAUUGUUUUGUGACUCUAACGAUACCAGAGUAGGACUUCUCCCUUGGCAGCGUGUGACAUGAGGAUCACCCAUGUCCA [theeternabot_exclusion_MS2_Theo_A_5] | 11.8 nM | 12.9 nM | 11.3 nM | – | – |
| UGACAUUGCUGCGAUACCAGACAUGAGGAUCACCCAUGUACCAAGAAAACGUACAUAAAUGUCCCUUGGCAGCGCAGCAAUGUCU [MAT - Exclusion Theophlline B - Mod of Eli - D25] | 170 nM | 593 nM | 806 nM | – | – |
| UACAUGAGGAUCACCCAUGUCGGCAGGGAAGGAGCGGCAAUAAAGCCAGGUAGGUCGCCCAUUAGUAUUUAUAAAUAAAUAUCCA [Same State - Arginine A] | 53.6 nM | 74.4 nM | 66.9 nM | 75.9 nM | 90 nM |
| AUCAUAAUAGCCUCGUGUAAUUAAAUGGAACGAGGACCGGUACGGCCGCCACUCGAUAUAAACAUGAGGAUCACCCAUGUAAGCA [JR_ExcTryptoA_Sub004] | 30.5 nM | 44.1 nM | – | 58.2 nM | – |
| UACAUGAGGAUCACCCAUGUGUAGAGGGAUACCAGUGACAGUAAGCGCCCUUGGCAGCCCGUGAACAAUGGGUGAGCUAAAUAGU [#18 Exclusion-TheophyllineA] | 28.7 nM | 75.5 nM | 57.4 nM | 133 nM | 37.9 nM |
| CACAUGAGGAUCACCCAUGUCUGAACUGAAGGAGCGCUAAAUAAGGCAGGUAGGUCGCGGAAUUUUGUGUGCAUAUGCACAUGGG [9.P] | 17.2 nM | 30.7 nM | 23.9 nM | 26.9 nM | 27.9 nM |

| Sequence | apparent KD of MS2 coat protein (input ligand: arginine 13.2 mM) | apparent KD of MS2 coat protein [1] | apparent KD of MS2 coat protein [2] | apparent KD of MS2 coat protein [3] | apparent KD of MS2 coat protein (input ligand: none) |
| --- | --- | --- | --- | --- | --- |
| AUUGUGAAGUCGGCCGCCACUGGUUAGUUUAACCUCAUGUAACAUGAGGAUCACCCAUGUAAUGACAGGACCGGGACAAUAGUAA [JR_ExcTryptoB_Sub015] | 103 nM | 126 nM | – | 194 nM | – |
| AAUAAACAUGAGGAUCACCCAUGUAUGGAAGGAGCGGUAAAUAAACCAGGUAGGUCGCCAGUGUGAGGGUCAUCUAUGUAAUAAA [Exclusion - Arginine A (Freestyle 1)] | 40.8 nM | 53.6 nM | 33.4 nM | 74.9 nM | 32 nM |
| CGGCCCUCACGUGAGGAUCACCCACGUGAUACCAGCCUGGAAACAGGCCCUUGGCAGCACUAGGUCAUCAAAGAUGACCAAGCCG [TheoAX 27 #OpenEnded #AlternativeMS2] | 11.8 nM | 14.1 nM | 11.3 nM | 18.9 nM | 10.7 nM |
| GGGACUAGAUCGGCCGCCACUGAUGGGACAUGAGGAUCACCCAUGUACGAAGUGAUCCAAUAAAUCAGGACCGGGAUCACUUGUA [Tryp B Ex t6] | 64.3 nM | 137 nM | – | 173 nM | – |
| AGUCUGGACUCGGCCGCCACUCGUGAUGCUUUGGCACAUGAGGAUCACCCAUGUGGUCGGCCUUAGAGGACCGGGAGUACCAGUC [Ariaredle] | 52.3 nM | 84.9 nM | – | 63.5 nM | – |
| GUUAAUAGAAAACUAUUAACAGUGGGUGAACGAGGACCGGUACGGCCGCCACUCGGACAUGAGGAUCACCCAUGUCCAUGUGAAA [AstrosExyTryA#5] | 18.6 nM | 16.9 nM | 35.4 nM | 15.6 nM | 16.9 nM |
| UACUUACAUGAGGAUCACCCAUGUGGCGAAGGAGCGGCAUGAGGGCCAGGUAGGUCGCGCCAACAUACAUACAUGAGGAUCUCCC [Same State Arginine A 4] | 46.3 nM | 127 nM | 93.1 nM | 118 nM | 78.9 nM |
| UCGACAGUGAACGAUACCAGCGUCACGUGGCCGGUGGUCACAUGAGGAUCACCCAUGUAACGCCCUUGGCAGCGUGCACGUAUCA [Latedirius] | 20.5 nM | 46.3 nM | 20.5 nM | – | – |
| UGCCGAGACGUGGAUUACCCAUGUACCGAAGGAGCGCCCGAAAGGGCAGGUAGGUCGCGGAGGACAUGAGGAUCACCCAUGUCGA | 83.8 nM | 127 nM | 47 nM | 166 nM | 34.5 nM |
| CCGGCCAGGGCGGCCGCCACUGAACGUGGAAGAAAGAAAACAUGAGGAUCACCCAUGUAAAUCCUCAGGACCGGGCCAGGGCCGG | 42.3 nM | 71 nM | 17.8 nM | 67 nM | 57.8 nM |
| GAGUAGAGGACGGCCGCCACUGAACAUGAGGAUCACCCAUGUCGUGAUCCGUUGCCUGAAGAAGAUAGGACCGGGUCAUGUGCUC [Exclusion Tryptophan B GF 20] | 40.4 nM | 44.7 nM | 25.5 nM | 31.8 nM | 28.6 nM |
| UAAUGCAUGACGGCCGCCACUAGAACAUGAGGAUCACCCAUGUACGGCGGCCGUCAUGGGUGGACUAGGACCGGGUCAUGCAUAU [(Trp1)-(Ms2)-(T)'-(M)'-(Trp2)_Design5] | 8.2 nM | 11.6 nM | – | 10.5 nM | – |
| ACUAACUAUAGUGAUACCAGACGUACAUGAGGAUCACCCAUGUUACAUUCUUGGUUAAAAGUCCCUUGGCAGCACGAUAAGUUCG [JR_Nu_ExcTheophyB_Sub025] | 9.7 nM | 11.2 nM | 10 nM | – | – |
| GAAAGAUGAGGCGGCAGUACCGAUGUCGAUACCAGCAUGAACAAAUGCCCUUGGCAGCGACAUGAGGAUCACCCAUGUAUCUGCG [Reraatlaan] | 14.5 nM | 16.1 nM | 11.6 nM | – | – |
| CUAUGCAGGUCGGCCGCCACUACACACAUGAGGAUCACCCAUGUAGUUACUGGGUGAAGUGGCAGUAGGACCGGGACCUGCAUAU [Brourdmod07] | 273 nM | 534 nM | – | 799 nM | – |
| GUAGCUAUCGCGGCCGCCACUAAACCGGAAACGGAACAGGAGGAUCACCCUUGUGGCGAAAGCCAUAGGACCGGGCGAUAGCUAC [TryBS - Double Magnet system] | 224 nM | 457 nM | 46.3 nM | 735 nM | – |
| GGACGAAGUUUCUUGUCCGGUCGCUGAGAAGGAGCGCGGUAAACCGCAGGUAGGUCGCUCAGAAAUACAUGAGGAUCACCCAUGU [Orsosous] | 17.1 nM | 27.2 nM | 21.5 nM | 21.4 nM | 21.1 nM |
| AUAGUCUAGAGUGAUACCAGACUACAUGAGGAUCACCCAUGUAUCUUUUGGUUAUCAUGUGUCCCUUGGCAGCACGCAUGUAUAG [JR_ExcTheophyB_Sub013] | 11.3 nM | 12.4 nM | 9.94 nM | – | – |
